Experiment [1] addresses T1, HGFRECD-c-Myc (extracellular domain of HGFR with c-Myc tag, expressed in HEK293T cells) (UniProt P08581 25-932).
T1 construct: extracellular domain; also called HGFRECD-c-Myc-tag; not shown: c-Myc tag
Briefly: co-IP with anti-c-Myc from transfected HEK293T cells (FIG. 1G).

In experiment [2] the target is T1, HGFRECD-c-Myc (extracellular domain of …). In words: co-IP from transfected HEK293T cells (FIG. 1F).

The values that follow come from patent US20250269018A1, “COMBINED CANCER THERAPY WITH AN EPITHELIAL CELL ADHESION MOLECULE (EPCAM) INHIBITOR AND A HEPATOCYTE GROWTH FACTOR RECEPTOR (HGFR) INHIBITOR” (ACADEMIA SINICA, priority 2021, published 2025).

T1 sequence (P08581 25-932): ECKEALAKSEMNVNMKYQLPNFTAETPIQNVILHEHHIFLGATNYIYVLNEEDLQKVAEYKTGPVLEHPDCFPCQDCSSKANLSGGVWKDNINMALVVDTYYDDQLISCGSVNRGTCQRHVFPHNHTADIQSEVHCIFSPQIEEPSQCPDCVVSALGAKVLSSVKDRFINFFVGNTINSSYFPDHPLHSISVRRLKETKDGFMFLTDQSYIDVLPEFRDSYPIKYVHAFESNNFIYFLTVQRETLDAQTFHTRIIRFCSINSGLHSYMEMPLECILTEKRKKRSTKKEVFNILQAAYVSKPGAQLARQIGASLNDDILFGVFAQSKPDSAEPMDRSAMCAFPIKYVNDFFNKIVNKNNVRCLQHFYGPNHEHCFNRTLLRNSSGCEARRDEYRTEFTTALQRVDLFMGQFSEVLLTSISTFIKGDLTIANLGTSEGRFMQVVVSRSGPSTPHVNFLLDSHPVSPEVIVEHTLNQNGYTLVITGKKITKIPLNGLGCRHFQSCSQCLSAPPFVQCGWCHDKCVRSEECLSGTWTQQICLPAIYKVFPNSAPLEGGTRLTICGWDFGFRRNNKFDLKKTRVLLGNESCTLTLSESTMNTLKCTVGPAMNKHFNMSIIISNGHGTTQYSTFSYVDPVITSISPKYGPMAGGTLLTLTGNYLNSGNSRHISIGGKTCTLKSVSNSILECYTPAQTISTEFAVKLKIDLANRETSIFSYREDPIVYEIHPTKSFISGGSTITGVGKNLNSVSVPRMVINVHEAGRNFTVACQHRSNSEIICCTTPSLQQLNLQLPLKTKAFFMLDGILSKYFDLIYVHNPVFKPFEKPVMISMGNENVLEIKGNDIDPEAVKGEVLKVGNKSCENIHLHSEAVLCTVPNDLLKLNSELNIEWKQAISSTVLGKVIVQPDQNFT

B1: EpEXΔEGFI-His (ligand)
chain: QEESKLAAKCLVMKAEMNGSKLGRRAKPEGALQNNDGLYDPDCDESGLFKAKQCNGTSMCWCVNTAGVRRTDKDTEITCSERVRTYWIIIELKHKAREKPYDSKSLRTALQKEITTRYQLDPKFITSILYENNVITIDLVQNSSQKTQNDVDIADVAYYFEKDVKGESLFHSKKMDLTVNGEQLDLDPGQTLIYYVDEKAPEFSMQGLK
notes: EpEX lacking aa 27-59; also called EGF like-domain deletion mutant EpEX-His; soluble EpEX mutant protein; not shown: His tag
B1: the binding result in experiment [1] was “binds”.

B2: EpCAMΔEGFI-V5 (other)
chain: QEESKLAAKCLVMKAEMNGSKLGRRAKPEGALQNNDGLYDPDCDESGLFKAKQCNGTSMCWCVNTAGVRRTDKDTEITCSERVRTYWIIIELKHKAREKPYDSKSLRTALQKEITTRYQLDPKFITSILYENNVITIDLVQNSSQKTQNDVDIADVAYYFEKDVKGESLFHSKKMDLTVNGEQLDLDPGQTLIYYVDEKAPEFSMQGLKAGVIAVIVVVVIAVVAGIVVLVISRKKRMAKYEKAEIKEMGEMHRELNA
notes: also called EGF like-domain deletion mutant EpCAM-V5; not shown: V5 tag
As for B2, in experiment [2], the binding result was “binds”.

B3: EpCAMΔEGFII-V5 (other)
chain: QEECVCENYKLAVNCFVNNNRQCQCTSVGAQNTVICSKLAAKSERVRTYWIIIELKHKAREKPYDSKSLRTALQKEITTRYQLDPKFITSILYENNVITIDLVQNSSQKTQNDVDIADVAYYFEKDVKGESLFHSKKMDLTVNGEQLDLDPGQTLIYYVDEKAPEFSMQGLKAGVIAVIVVVVIAVVAGIVVLVISRKKRMAKYEKAEIKEMGEMHRELNA
notes: as for B2
Turning to B3, in experiment [2], the binding result was “binds”.
